Measured values as given in the supplement of paper PMC7877785.
± gives the uncertainty stated by the source.

Assay: self-splicing fitness, log relative to wild type (ln ratio); higher = more splicing; Tetrahymena group I intron in knt gene, E. coli kanamycin selection, DiMSum; sequences stand for … in CUCUCU…GGAGGGAAAAGUUAUCAGGCAUGCACCUGGUAGCUAGUCUUUAAACCAAUAGAUUGCAUCGGUUUAAAAGGCAAGACCGUCAAAUUGCGGGAAAGGGGUCAACAGCCGUUCAGUACCAAGUCUCAGGGGAAACUUUGAGAUGGCCUUGCAAAGGGUAUGGUAAUAAGCUGACGGACAUGGUCCUAACCACGCAGCCAAGUCCUAAGUCAACAGAUCUUCUGUUGAUAUGGAUGCAGUUCACAGACUAAAUGUCGGUCGGGGAAGAUGUAUUCUUCUCAUAAGAUAUAGUCGGACCUCUCCUUAAUGGGAGCUAGCGGAUGAAGUGAUGCAACACUGGAGCCGCUGGGAACUAAUUUGUAUGCGAAAGUAUAUUGAUUAGUUUUGGAGUACUCGUGGUCG
In short: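 Pooled colonies went to amplicon sequencing on an Illumina HiSeq 2500 after six replicate transformations. The plates were LB agar with 100 μg/mL carbenicillin, 50 μM IPTG and 0.2% rhamnose, with or without 25 μg/mL kanamycin, incubated overnight at 37°C or 30°C. The E. coli BL21(DE3) library had all eight P1ex-region intron nucleotides randomised, the intron placed in the knt kanamycin-resistance gene on pET-22b(+). DiMSum fitness is the error-weighted combination of replicate fold changes, kanamycin against none, normalised to wild type.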

Sequence | self-splicing fitness (ln) (30 °C) | self-splicing fitness (ln) (37 °C)
CUUUAGCAAUAUUACGGUCA | -2.41 ± 0.25 | -3.28 ± 0.35
CUUUAGCAAUAUUACGUAGC | – | -1.6 ± 0.49
CUUUAGCAAUAUUACGUCCA | -3.2 ± 0.41 | -0.864 ± 0.24
CUUUAGCAAUAUUACGUCUU | -3.41 ± 0.26 | -3.28 ± 0.33
CUUUAGCAAUAUUACGUGAA | -3.77 ± 0.35 | -2.65 ± 0.28
CUUUAGCAAUAUUACGUGGG | -3.1 ± 0.17 | -2.96 ± 0.27
CUUUAGCAAUAUUACGUGUU | -3.49 ± 0.18 | -3.77 ± 0.22
CUUUAGCAAUAUUACGUUAA | -2.87 ± 0.27 | –
CUUUAGCAAUAUUACGUUAG | -2.49 ± 0.18 | -2.32 ± 0.26
CUUUAGCAAUAUUACGUUUU | -3.27 ± 0.3 | -2.39 ± 0.35
GAAAAGCAAUAUUACGAAGA | -2.88 ± 0.18 | -1.34 ± 0.13
GAAAAGCAAUAUUACGACUA | 0.0422 ± 0.14 | 0.403 ± 0.15
GAAAAGCAAUAUUACGCCCA | -0.288 ± 0.11 | -0.385 ± 0.19
GAAAAGCAAUAUUACGCCGA | -1.01 ± 0.2 | -0.824 ± 0.23
GAAAAGCAAUAUUACGCUCA | -0.514 ± 0.11 | 0.0911 ± 0.14
GAAAAGCAAUAUUACGCUUU | -3.39 ± 0.22 | -2.39 ± 0.26
GAAAAGCAAUAUUACGGCCG | -0.796 ± 0.087 | -0.537 ± 0.12
GAAAAGCAAUAUUACGGCGG | -1.86 ± 0.1 | -1.59 ± 0.1
GAAAAGCAAUAUUACGGCUA | -0.156 ± 0.082 | 0.451 ± 0.082
GAAAAGCAAUAUUACGGGAA | -2.07 ± 0.14 | -0.425 ± 0.13
GAAAAGCAAUAUUACGGGCU | -1.37 ± 0.15 | -1.72 ± 0.21
GAAAAGCAAUAUUACGGUGC | -2.02 ± 0.12 | -2.05 ± 0.18
GAAAAGCAAUAUUACGUAAC | -2.11 ± 0.18 | -1.38 ± 0.17
GAAAAGCAAUAUUACGUAGA | -0.772 ± 0.076 | -1.77 ± 0.13

Sequence | self-splicing fitness (ln) (30 °C) | self-splicing fitness (ln) (37 °C)
GAAAAGCAAUAUUACGUAUU | -3.24 ± 0.13 | -2.16 ± 0.11
GAAAAGCAAUAUUACGUGGG | -3.69 ± 0.13 | -1.29 ± 0.11
GAAAAGCAAUAUUACGUUGA | -2.87 ± 0.15 | -1.24 ± 0.1
GAAAAGCAAUAUUACGUUUG | -2.71 ± 0.097 | -2.02 ± 0.15
GAACAGCAAUAUUACGAAAG | -3.62 ± 0.18 | -1.58 ± 0.13
GAACAGCAAUAUUACGAAGU | -2.04 ± 0.12 | -0.944 ± 0.15
GAACAGCAAUAUUACGAAUC | -1.76 ± 0.08 | -1.9 ± 0.13
GAACAGCAAUAUUACGAGAC | -2.13 ± 0.22 | -1.21 ± 0.18
GAACAGCAAUAUUACGCACA | -0.348 ± 0.082 | -0.338 ± 0.094
GAACAGCAAUAUUACGCAGU | -3.37 ± 0.11 | -2.5 ± 0.13
GAACAGCAAUAUUACGCCGA | -0.857 ± 0.12 | -0.581 ± 0.1
GAACAGCAAUAUUACGCGAA | -0.881 ± 0.086 | -0.124 ± 0.12
GAACAGCAAUAUUACGCGCC | -0.957 ± 0.13 | -0.851 ± 0.15
GAACAGCAAUAUUACGCGCU | -0.914 ± 0.088 | -0.133 ± 0.11
GAACAGCAAUAUUACGCGGA | -1.94 ± 0.082 | -0.737 ± 0.075
GAACAGCAAUAUUACGCUCU | -1.37 ± 0.17 | -0.466 ± 0.15
GAACAGCAAUAUUACGGAAG | -3.32 ± 0.14 | -1.73 ± 0.16
GAACAGCAAUAUUACGGACU | -1.28 ± 0.085 | -0.212 ± 0.097
GAACAGCAAUAUUACGGGAU | -2.26 ± 0.084 | -1.05 ± 0.079
GAACAGCAAUAUUACGGGUG | -1.88 ± 0.072 | -1.59 ± 0.092
GAACAGCAAUAUUACGGUGG | -2 ± 0.095 | -1.19 ± 0.1
GAACAGCAAUAUUACGGUGU | -2.02 ± 0.066 | -0.373 ± 0.069
GAACAGCAAUAUUACGUACC | -0.94 ± 0.27 | 0.0452 ± 0.3
GAACAGCAAUAUUACGUUAG | -0.954 ± 0.047 | -0.969 ± 0.067

Sequence | self-splicing fitness (ln) (30 °C) | self-splicing fitness (ln) (37 °C)
GAACAGCAAUAUUACGUUCA | -2.31 ± 0.1 | -1.49 ± 0.087
GAACAGCAAUAUUACGUUCC | -2.88 ± 0.36 | –
GAACAGCAAUAUUACGUUCG | -2.12 ± 0.099 | -1.38 ± 0.096
GAACAGCAAUAUUACGUUUA | -0.588 ± 0.07 | -0.031 ± 0.078
GAAGAGCAAUAUUACGACAG | -3.36 ± 0.29 | -2.76 ± 0.28
GAAGAGCAAUAUUACGACUC | -0.32 ± 0.095 | -0.113 ± 0.11
GAAGAGCAAUAUUACGACUG | -3.86 ± 0.39 | -1.88 ± 0.16
GAAGAGCAAUAUUACGAUAU | -4.88 ± 0.36 | -1.06 ± 0.14
GAAGAGCAAUAUUACGCCUC | -3.27 ± 0.32 | -2.96 ± 0.32
GAAGAGCAAUAUUACGCGGA | -2.64 ± 0.17 | -2.37 ± 0.21
GAAGAGCAAUAUUACGCGUA | -3.68 ± 0.37 | -2.05 ± 0.22
GAAGAGCAAUAUUACGCUGU | -3.82 ± 0.3 | -2.6 ± 0.29
GAAGAGCAAUAUUACGCUUC | -2.47 ± 0.34 | -1.37 ± 0.18
GAAGAGCAAUAUUACGCUUG | -2.25 ± 0.13 | -1.3 ± 0.14
GAAGAGCAAUAUUACGGACG | -2.59 ± 0.27 | –
GAAGAGCAAUAUUACGGCCG | -2.63 ± 0.42 | -0.854 ± 0.29
GAAGAGCAAUAUUACGGGAU | -3.63 ± 0.22 | -3.16 ± 0.3
GAAGAGCAAUAUUACGGGGU | -3.09 ± 0.34 | -1.83 ± 0.28
GAAGAGCAAUAUUACGUAAU | -3.03 ± 0.2 | -1.22 ± 0.23
GAAGAGCAAUAUUACGUAUA | -2 ± 0.28 | -3.5 ± 0.34
GAAGAGCAAUAUUACGUCGU | -2.96 ± 0.21 | -2.24 ± 0.21
GAAGAGCAAUAUUACGUCUU | -4.83 ± 0.19 | -2.4 ± 0.081
GAAGAGCAAUAUUACGUGGA | -2.05 ± 0.18 | -2.54 ± 0.26
GAAGAGCAAUAUUACGUUAG | -2.19 ± 0.3 | -2.59 ± 0.31

Sequence | self-splicing fitness (ln) (30 °C) | self-splicing fitness (ln) (37 °C)
GAAUAGCAAUAUUACGAAGC | -3.17 ± 0.24 | -2.54 ± 0.22
GAAUAGCAAUAUUACGCAGG | -2.6 ± 0.2 | -2.28 ± 0.21
GAAUAGCAAUAUUACGCAUU | -3.04 ± 0.22 | -1.43 ± 0.2
GAAUAGCAAUAUUACGCGAG | -1.19 ± 0.087 | -0.803 ± 0.096
GAAUAGCAAUAUUACGCUCA | -0.0838 ± 0.16 | 0.784 ± 0.18
GAAUAGCAAUAUUACGGACU | -0.83 ± 0.07 | -0.397 ± 0.087
GAAUAGCAAUAUUACGGGAA | -2.97 ± 0.19 | -0.92 ± 0.1
GAAUAGCAAUAUUACGGGCC | -1.6 ± 0.26 | -1.13 ± 0.37
GAAUAGCAAUAUUACGGGGA | -2.99 ± 0.19 | -2.39 ± 0.19
GAAUAGCAAUAUUACGGGGC | -3.15 ± 0.43 | –
GAAUAGCAAUAUUACGGGGU | -3.77 ± 0.21 | -3.71 ± 0.21
GAAUAGCAAUAUUACGGUUU | -1.03 ± 0.078 | -1.11 ± 0.1
GAAUAGCAAUAUUACGUACU | -0.732 ± 0.11 | -0.151 ± 0.12
GAAUAGCAAUAUUACGUAUA | -2.32 ± 0.15 | -1.54 ± 0.15
GAAUAGCAAUAUUACGUUAU | -2.79 ± 0.12 | -1.65 ± 0.14
GAAUAGCAAUAUUACGUUGU | -3.27 ± 0.14 | -2.38 ± 0.16
GAAUAGCAAUAUUACGUUUC | -3.37 ± 0.19 | -2.4 ± 0.29
GACAAGCAAUAUUACGAAUA | -2.03 ± 0.12 | -1.17 ± 0.099
GACAAGCAAUAUUACGACCC | 0.926 ± 0.23 | -0.477 ± 0.39
GACAAGCAAUAUUACGAGGA | -3.16 ± 0.21 | -2.42 ± 0.14
GACAAGCAAUAUUACGAGUU | -3.7 ± 0.15 | -2.3 ± 0.16
GACAAGCAAUAUUACGAUUA | -0.415 ± 0.096 | -0.117 ± 0.1
GACAAGCAAUAUUACGCACG | -2.2 ± 0.13 | -1.07 ± 0.17
GACAAGCAAUAUUACGCCAU | -3.44 ± 0.4 | -2.96 ± 0.26
